Measured values published in article PMC4256133 (Proteins, 2014).

Target: the molecule itself
Test: crystal structure

B1: Octaprenyl pyrophosphate synthase from Escherichia coli (enzyme, E. coli)
chain: MNLEKINELTAQDMAGVNAAILEQLNSDVQLINQLGYYIVSGGGKRIRPMIAVLAARAVGYEGNAHVTIAALIEFIHTATLLHDDVVDESDMRRGKATANAAFGNAASVLVGDFIYTRAFQMMTSLGSLKVLEVMSEAVNVIAEGEVLQLMNVNDPDITEENYMRVIYSKTARLFEAAAQCSGILAGCTPEEEKGLQDYGRYLGTAFQLIDDLLDYNADGEQLGKNVGDDLNEGKPTLPLLHAMHHGTPEQAQMIRTAIEQGNGRHLLEPVLEAMNACGSLEWTRQRAEEEADKAIAALQVLPDTPWREALIGLAHIAVQRDR
- stoichiometry N: 2
